Test results: patent US20230143604A1, “QW DOSING OF GIP RECEPTOR AGONIST PEPTIDE COMPOUNDS AND USES THEREOF” (TAKEDA PHARMACEUTICAL COMPANY LIMITED, priority 2020, published 2023)
Starred links: 1 amine or outer side, 2 acyl side, 3 side chain; linkers in the order of their positions; H or OH if unused. Non-standard residues stand in square brackets, D forms with d. Groups on a side chain read outwards from the residue. No end group written: not given here. *: point of attachment. C18 diacid = O=C(O)CCCCCCCCCCCCCCCCC(=O)*; C17 diacid = O=C(O)CCCCCCCCCCCCCCCC(=O)*; γGlu = O=C(O)[C@H](CCC(=O)[*:2])N[*:1]; NMeY = CN[C@@H](Cc1ccc(O)cc1)C(=O)O; Stearoyl = CCCCCCCCCCCCCCCCCC(=O)*; AEEA = NCCOCCOCC(=O)O; E∗ = not defined here; K∗ = not defined here; Aib = CC(C)(N)C(=O)O

B1: Compound No. 183 (peptide)
peptide: Me-Y[Aib]EGTFISDYSIALDR[E∗]HQ[K∗]NFVNWLLAQK([AEEA-AEEA-γGlu-C18 diacid])PSSGAPPPS-NH2
modifications: not fully specified (residue 1); reading uncertain; also: E* at 17 and K* at 20 marked, meaning not given here
B2: Compound No. 182 (peptide)
peptide: Me-Y[Aib]EGTFISDYSIALDR[Aib]HQ[E∗]NF[K∗]NWLLAQK([AEEA-AEEA-γGlu-C18 diacid])PSSGAPPPS-NH2
modifications: not fully specified (residue 1); reading uncertain; also: E* at 20 and K* at 23 marked, meaning not given here
B3: Compound No. 185 (peptide)
peptide: YXEGTFISDYSIALDRXHQXNFVNELLKQXPSSGAPPPS
modifications: N-terminal Me (Me-Tyr 1); Aib at 2, 17, 20; E* at 25 and K* at 28 (mark * as printed, not explained); Km at 30 = Lys(2OEGgE-C18DA); C-terminus NH2

Target: T1, full-length human GIPR with an N-terminal FLAG tag, overexpressed on HEK-293T cells (human, UniProt P48546 22-466)
T1 sequence (looked up): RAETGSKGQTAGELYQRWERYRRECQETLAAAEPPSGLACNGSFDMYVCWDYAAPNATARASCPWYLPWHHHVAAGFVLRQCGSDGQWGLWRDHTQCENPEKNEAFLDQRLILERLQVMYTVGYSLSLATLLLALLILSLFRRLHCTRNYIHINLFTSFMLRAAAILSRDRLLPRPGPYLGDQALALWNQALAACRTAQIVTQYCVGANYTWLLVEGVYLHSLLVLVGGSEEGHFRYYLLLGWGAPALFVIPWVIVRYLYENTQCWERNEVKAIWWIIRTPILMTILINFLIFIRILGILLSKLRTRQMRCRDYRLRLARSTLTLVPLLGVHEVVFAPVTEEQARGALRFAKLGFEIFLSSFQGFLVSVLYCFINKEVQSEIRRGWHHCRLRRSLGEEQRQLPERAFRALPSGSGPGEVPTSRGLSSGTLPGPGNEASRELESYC
Experiment: cell-based or functional assay

In order of rising “Human GIPR cAMP EC50, HEK293T” value:
1. [NMeY][Aib]EGTFISDYSIAK([AEEA-AEEA-γGlu-γGlu-C17 diacid])DR[Aib]AQ[Aib]NFVNWLLAQS-OH [Compound No. 192]  0.2 pM
2. [NMeY][Aib]EGTFISDYSIALDR[Aib]HQ[Aib]NFVNWK([AEEA-AEEA-γGlu-C18 diacid])LAQR-NH2 [Compound No. 186]  0.3 pM
3. [NMeY][Aib]EGTFISDYSI[Aib]LDR[Aib]AQ[Aib]K([AEEA-AEEA-γGlu-C18 diacid])FVNWLLAQRG-OH [Compound No. 208]  0.3 pM
4. [NMeY][Aib]EGTFISDYSI[Aib]LDR[Aib]AQ[Aib]K([G5-γGlu-γGlu-C18 diacid])FVNWLLAQRG-OH [Compound No. 210]  0.3 pM
5. [NMeY][Aib]EGTFISDYSI[Aib]LDR[Aib]AQ[Aib]K([AEEA-AEEA-γGlu-γGlu-C18 diacid])FVNWLLAQRG-NH2 [Compound No. 204]  0.3 pM
6. Me-Y[Aib]EGTFISDYSIALDRIAQQK([AEEA-AEEA-γGlu-γGlu-C18 diacid])FVNWLLAQSPSSGAPPPS-OH [Compound No. 177]  0.3 pM
7. [NMeY][Aib]EGTFISDYSI[Aib]LDR[Aib]AA[Aib]K([AEEA-AEEA-γGlu-γGlu-C18 diacid])FVNWLLAQRG-OH [Compound No. 212]  0.3 pM
8. Me-Y[Aib]EGTFISDYSIALDKAAQ[Aib]K([AEEA-AEEA-γGlu-γGlu-C18 diacid])FVNWLLAQRG-OH [Compound No. 176]  0.3 pM
9. [NMeY][Aib]EGTFISDYSI[Aib]LDR[Aib]AQ[Aib]K([AEEA-γGlu-γGlu-C18 diacid])FVNWLLAQRG-OH [Compound No. 207]  0.4 pM
10. H-Y[Aib]EGTFISDYSIALDRAAQ[Aib]K([AEEA-AEEA-γGlu-γGlu-C18 diacid])FVEWLLAQRG-OH [Compound No. 206]  0.4 pM
11. [NMeY][Aib]EGTFISDYSIALDRIHQQNFVNWLLAQK([AEEA-AEEA-γGlu-C18 diacid])PSSGAPPPS-NH2 [Compound No. 190]  0.5 pM
12. [NMeY][Aib]EGTFISDYSIALDR[Aib]AQ[Aib]K([AEEA-AEEA-γGlu-γGlu-C17 diacid])FVNWLLAQKG-OH [Compound No. 200]  0.6 pM
13. Me-Y[Aib]EGTFISDYSIALDRAAQQK([AEEA-AEEA-γGlu-γGlu-C18 diacid])FVNWLLAQSPG-OH [Compound No. 178]  0.6 pM
14. B1  0.7 pM
15. YXEGTFISDYSIAXDRIAQRNFVEWLLAQSPSSGAPPPS (N-terminal Me (Me-Tyr 1); Aib at 2; Km at 14 = Lys(G5-C18DA); C-terminus OH) [Compound No. 179]  0.8 pM
16. [NMeY]GEGTFISDYSI[Aib]LDR[Aib]AQ[Aib]K([AEEA-AEEA-γGlu-γGlu-C18 diacid])FVNWLLAQRG-OH [Compound No. 205]  0.8 pM
17. YXEGTFISDYSIAXDRIAQRNFVEWLLAQSPG (N-terminal Me (Me-Tyr 1); Aib at 2; Km at 14 = Lys(G5-C18DA); C-terminus OH) [Compound No. 180]  0.9 pM
18. [NMeY][Aib]EGTFISDYSI[Aib]LDR[Aib]HQ[Aib]K([AEEA-AEEA-γGlu-γGlu-C18 diacid])FVNWLLAQRG-OH [Compound No. 201]  0.9 pM
19. B3  1 pM
20. [NMeY][Aib]EGTFISDYSIALDR[Aib]AQ[Aib]K([AEEA-AEEA-γGlu-γGlu-Stearoyl])FVNWLLAQKG-OH [Compound No. 203]  1.3 pM
21. Y[Aib]EGTFISDYSIAMDKK([AEEA-AEEA-γGlu-C18 diacid])HQQDFVNWLLAQKGKKNDWKHNITQ-OH [Compound No. 188]  1.9 pM
22. Y[Aib]EGTFISDYSIAK([AEEA-AEEA-γGlu-C18 diacid])DKIHQQDFVNWLLAQKGKKNDWKHNITQ-OH [Compound No. 187]  3.2 pM
23. [NMeY][Aib]EGTFISDYSIALDR[Aib]HQQNFVNWLLAQK([AEEA-AEEA-γGlu-C18 diacid]) [Compound No. 191]  3.2 pM
24. [NMeY][Aib]EGTFISDYSI[Aib]LDR[Aib]AQ[Aib]K([AEEA-AEEA-γGlu-γGlu-Stearoyl])FVNWLLAQRG-OH [Compound No. 202]  4.2 pM
25. B2  52.5 pM

Target: full-length human GLP-1R with an N-terminal FLAG tag, overexpressed on HEK-293T cells (human, UniProt P43220 24-463)
Experiment: cell-based or functional assay

In order of falling “Human GLP1R cAMP EC50, HEK293T” value:
1. [NMeY][Aib]EGTFISDYSIALDR[Aib]HQ[Aib]NFVNWK([AEEA-AEEA-γGlu-C18 diacid])LAQR-NH2 [Compound No. 186]  1000 nM
2. B3  1000 nM
3. Y[Aib]EGTFISDYSIAK([AEEA-AEEA-γGlu-C18 diacid])DKIHQQDFVNWLLAQKGKKNDWKHNITQ-OH [Compound No. 187]  562 nM
4. B2  214 nM
5. Me-Y[Aib]EGTFISDYSIALDRAAQQK([AEEA-AEEA-γGlu-γGlu-C18 diacid])FVNWLLAQSPG-OH [Compound No. 178]  186 nM
6. [NMeY][Aib]EGTFISDYSIAK([AEEA-AEEA-γGlu-γGlu-C17 diacid])DR[Aib]AQ[Aib]NFVNWLLAQS-OH [Compound No. 192]  178 nM
7. B1  162 nM
8. Y[Aib]EGTFISDYSIAMDKK([AEEA-AEEA-γGlu-C18 diacid])HQQDFVNWLLAQKGKKNDWKHNITQ-OH [Compound No. 188]  132 nM
9. Me-Y[Aib]EGTFISDYSIALDRIAQQK([AEEA-AEEA-γGlu-γGlu-C18 diacid])FVNWLLAQSPSSGAPPPS-OH [Compound No. 177]  100 nM
10. [NMeY][Aib]EGTFISDYSIALDRIHQQNFVNWLLAQK([AEEA-AEEA-γGlu-C18 diacid])PSSGAPPPS-NH2 [Compound No. 190]  97.7 nM
11. [NMeY][Aib]EGTFISDYSIALDR[Aib]HQQNFVNWLLAQK([AEEA-AEEA-γGlu-C18 diacid]) [Compound No. 191]  97.7 nM
12. [NMeY][Aib]EGTFISDYSIALDR[Aib]AQ[Aib]K([AEEA-AEEA-γGlu-γGlu-C17 diacid])FVNWLLAQKG-OH [Compound No. 200]  77.6 nM
13. [NMeY][Aib]EGTFISDYSI[Aib]LDR[Aib]HQ[Aib]K([AEEA-AEEA-γGlu-γGlu-C18 diacid])FVNWLLAQRG-OH [Compound No. 201]  61.7 nM
14. [NMeY][Aib]EGTFISDYSI[Aib]LDR[Aib]AA[Aib]K([AEEA-AEEA-γGlu-γGlu-C18 diacid])FVNWLLAQRG-OH [Compound No. 212]  42.7 nM
15. Me-Y[Aib]EGTFISDYSIALDKAAQ[Aib]K([AEEA-AEEA-γGlu-γGlu-C18 diacid])FVNWLLAQRG-OH [Compound No. 176]  40.7 nM
16. [NMeY][Aib]EGTFISDYSI[Aib]LDR[Aib]AQ[Aib]K([AEEA-γGlu-γGlu-C18 diacid])FVNWLLAQRG-OH [Compound No. 207]  36.3 nM
17. [NMeY]GEGTFISDYSI[Aib]LDR[Aib]AQ[Aib]K([AEEA-AEEA-γGlu-γGlu-C18 diacid])FVNWLLAQRG-OH [Compound No. 205]  33.1 nM
18. H-Y[Aib]EGTFISDYSIALDRAAQ[Aib]K([AEEA-AEEA-γGlu-γGlu-C18 diacid])FVEWLLAQRG-OH [Compound No. 206]  26.3 nM
19. [NMeY][Aib]EGTFISDYSI[Aib]LDR[Aib]AQ[Aib]K([G5-γGlu-γGlu-C18 diacid])FVNWLLAQRG-OH [Compound No. 210]  10.7 nM
20. [NMeY][Aib]EGTFISDYSI[Aib]LDR[Aib]AQ[Aib]K([AEEA-AEEA-γGlu-C18 diacid])FVNWLLAQRG-OH [Compound No. 208]  9.33 nM
21. [NMeY][Aib]EGTFISDYSI[Aib]LDR[Aib]AQ[Aib]K([AEEA-AEEA-γGlu-γGlu-C18 diacid])FVNWLLAQRG-NH2 [Compound No. 204]  6.61 nM
22. YXEGTFISDYSIAXDRIAQRNFVEWLLAQSPG (N-terminal Me (Me-Tyr 1); Aib at 2; Km at 14 = Lys(G5-C18DA); C-terminus OH) [Compound No. 180]  5.75 nM
23. [NMeY][Aib]EGTFISDYSIALDR[Aib]AQ[Aib]K([AEEA-AEEA-γGlu-γGlu-Stearoyl])FVNWLLAQKG-OH [Compound No. 203]  4.17 nM
24. YXEGTFISDYSIAXDRIAQRNFVEWLLAQSPSSGAPPPS (N-terminal Me (Me-Tyr 1); Aib at 2; Km at 14 = Lys(G5-C18DA); C-terminus OH) [Compound No. 179]  2.88 nM
25. [NMeY][Aib]EGTFISDYSI[Aib]LDR[Aib]AQ[Aib]K([AEEA-AEEA-γGlu-γGlu-Stearoyl])FVNWLLAQRG-OH [Compound No. 202]  2.51 nM
